{"source": "patent US20250296984A1", "about": "“THERAPEUTIC AND DIAGNOSTIC AGENTS AND USES THEREOF” (priority 2022, published 2025)", "molecules": {"B1": {"name": "13-5G6-1D3: mouse monoclonal IgG1 kappa antibody against US28 ECD3; VH SEQ ID NO: 12, VL SEQ ID NO: 18 (antibody, V domains shown)", "VH": "EVKLVESGGGLVQPGGSLRLACATSGFTFTDYYMSWVRQPPGKALEWLGFIRSKANGYTTEYSASVKGRFTISRDNSQSILYLQMNTLRSEDSATYYCARDERRTAWLAYWGQGTLVTVSA", "VL": "DVLMTQTPLSLPVSLGDQASISCRSSQSIVHSNGNTYLDWYLQKPGQSPKLLIYKVSNRFSGVPDRFSGSGSGTDFTLKISRVEAEDLGVYYCFQGSHVPTWTFGGGTKLEIK", "modifications": "Mature form of VH sequence of 1D3, without the leader sequence; Mature form of VL sequence of 1D3, without the leader sequence"}, "B2": {"name": "13-5G6-1D3 rAb: recombinant antibody product of US28-13-5G6-1D3 produced in HEK293-F cells (antibody)", "heavy": "EVKLVESGGGLVQPGGSLRLACATSGFTFTDYYMSWVRQPPGKALEWLGFIRSKANGYTTEYSASVKGRFTISRDNSQSILYLQMNTLRSEDSATYYCARDERRTAWLAYWGQGTLVTVSAAKTTPPSVYPLAPGSAAQTNSMVTLGCLVKGYFPEPVTVTWNSGSLSSGVHTFPAVLQSDLYTLSSSVTVPSSTWPSETVTCNVAHPASSTKVDKKIVPRDCGCKPCICTVPEVSSVFIFPPKPKDVLTITLTPKVTCVVVDISKDDPEVQFSWFVDDVEVHTAQTQPREEQFNSTFRSVSELPIMHQDWLNGKEFKCRVNSAAFPAPIEKTISKTKGRPKAPQVYTIPPPKEQMAKDKVSLTCMITDFFPEDITVEWQWNGQPAENYKNTQPIMDTDGSYFIYSKLNVQKSNWEAGNTFTCSVLHEGLHNHHTEKSLSHSPGK", "light": "DVLMTQTPLSLPVSLGDQASISCRSSQSIVHSNGNTYLDWYLQKPGQSPKLLIYKVSNRFSGVPDRFSGSGSGTDFTLKISRVEAEDLGVYYCFQGSHVPTWTFGGGTKLEIKRADAAPTVSIFPPSSEQLTSGGASVVCFLNNFYPKDINVKWKIDGSERQNGVLNSWTDQDSKDSTYSMSSTLTLTKDEYERHNSYTCEATHKTSTSPIVKSFNRNEC"}, "B3": {"name": "7B1F3: mouse IgG1 kappa antibody against US28 ECD1 Peptide-N; VH SEQ ID NO: 211, VL SEQ ID NO: 213 (antibody, V domains shown)", "VH": "EVQLQQSGAELAKPGASVKMSCKASGYTFTNYWMHWVKQRPGQGLEWIGYVNPRTGYTEYNQKFKDKATLTADKSSRTAYMQLSSLTSEDSAVYSCARILNGTGFAYWGQGTLVTVSA", "VL": "DIVLTQSPSSLTVSVGEKFTMSCKSSQSLLYSSNQKNYLAWYQQKPGQSPKLLIYWASTRESGVPDRFTGSGSGTDFTLAISSVKPEDLAIYYCQQYYSFPLTFGAGTKLEIK", "modifications": "Mature form of VH sequence of 7B1F3, without the leader sequence; Mature form of VL sequence of 7B1F3, without the leader sequence"}}, "key": {"[1]": {"tested_on": "human heart muscle tissue", "assay": "Immunohistochemistry (IHC) on human cardiac tissues", "details": "FIG. 19 B", "method": "Cytomegalovirus (CMV) control slides containing CMV positive lung tissue and CMV negative myometrium (product number #3240A) were obtained from Newcomer Supply Inc., Middleton, WI 53562-2579, USA. Tissue micro-arrays (TMAs) were obtained from US Biomax Inc., Derwood, MD 20855, USA, and included tumor tissues #BR1008b, #BS17016c, #BCN721b and normal tissues #FDA662a and heart tissues #HEN241a.\nThe paraffin sections were sequentially immersed into a. 100% xylene three times (5 min each); b. 100% ethanol twice (2 min each); c. 95% ethanol twice (2 min each). The slides were rinsed twice in water for 5 min to remove ethanol. […], the slides were immersed in 3% H2O2 for 5 minutes and washed thereafter twice (2×) with distilled water. The slides were then immersed in the working citrate buffer (pH 6.0) and covered with a lid. The buffer was heated in the microwave until it had boiled, and then kept in the steamer for 15 min.\nThe sections were cooled at room temperature for 30 min and washed with PBS. 5% BSA blocking solution was then added to the HIER treated samples and they were incubated at 37° C. for 30 min. […] Digitized pictures were taken by Olympus VS120 scanner and analyzed by using OlyVia 3.2 software (Olympus Corporation, 20101 Tokyo, Japan) by senior Pathologist. […]"}, "[2]": {"tested_on": "US28 negative CHO control cells", "assay": "Flow cytometry off-target binding to US28 negative control CHO cells", "set-up": "species or system Chinese Hamster", "details": "1:10 dilution (w/v), after removing binding to blank and secondary Ab controls", "excerpt": "FIG. 4. The positive surface binding of the clone US28-13-5G6-1D3 on CHO-US28-A1 cells was compared with the US28 negative CHO control cells. The clone US28-13-5G6-1D3 Ab bound 15-fold more to the surface of the US28 positive CHO-US28-A1 cells than to the US28 negative CHO cells in 1:50 (w/v).\nFIG. 7. Surface binding of 13-5G6-1D3 rAb on CHO-US28-A1 cells, and on respective control CHO cells were validated by using FACS analysis. The bars showing results for CHO cells are colored with dark grey whereas the bars showing results for CHO-US28-A1 cells are colored with pale grey color. […] The surface binding of the 13-5G6-1D3 rAb to CHO cells was only measured in 1:10 dilution (w/v) and was 0.77% after removing the binding to blank and anti-mouse IgG-Alexa 488 secondary Ab controls.\nFIG. 22. Percentage off-target binding of various ECD3-binding molecules of the invention (A) or various SEQ ID NO: 177-binding molecules of the invention (B), in comparison with VUN100, as assessed by binding to control CHO cells.\nIn a further embodiment, it is preferred that a binding molecule of the present invention binds preferentially to US28-expressing cells (such as CHO cells engineered to express US28) compared to its binding of US28-negative cells (such as wildtype CHO cells), for example, at a 1:50 (w/v) dilution, for example as determined by flow cytometry assay. […]"}, "[3]": {"molecular_target": "T1, Peptide-N […] (SEQ ID NO: 177), HCMV US28 ECD1 (Human cytomegalovirus, UniProt P69332)", "T1 construct": "Peptide-N was prepared via chemical synthesis: […]; made in house; host or cells: chemical synthesis", "assay": "ELISA, binding to Peptide-N (Bio-Peptide-N / Peptide-N-BSA coating)", "method": "Microtiter plate wells were coated with 100 μl of the solution containing: (i) Bio-Peptide-N; or (ii) Bio-Peptide-1 and Bio-Peptide-2; at a concentration of between 1-10 μg/ml in coating buffer, consisting of Na2CO3, 1.5 g and NaHCO3, 2.93 g in 1 L of distilled water in pH 9.6, and then incubated for 1-2 hours at room temperature. The plate was washed 3 times in wash buffer consisting of PBS containing 0.05% v/v Tween-20 and blotted with paper towels thereafter. 150 μl of blocking solution containing Phosphate buffered saline (PBS) containing 1% w/v BSA, was added to each well and the plate was incubated for 2 hours at 37° C. The wells were washed 4 times in wash buffer and blotted on paper towels after the last wash. 100 μl of antibody dilution was added to each well and the plate was incubated for 1 hour at 37° C. and thereafter washed 3 times in wash buffer. 100 μl enzyme-conjugated secondary antibody (appropriately diluted in wash buffer) was added to each well and the plate was incubated for 1 hour at 37° C. The wells were then again washed 3 times in wash buffer and blotted with paper towels after the last wash. […] The absorbance values were read immediately at the appropriate wavelength and the data analyzed by Cmax Plus, Molecular Devices, San Jose, CA 95134, USA,"}}, "data": [{"molecule": "B1", "values": [{"measurement": "off-target binding in IHC", "setting": "[1]", "result": "did not show any general off-target binding"}]}, {"molecule": "B2", "values": [{"measurement": "surface binding to CHO cells, percent of cells", "setting": "[2]", "result": 0.77, "unit": "%"}]}, {"molecule": "B3", "values": [{"measurement": "absorbance, Coating: Peptide-N-BSA", "setting": "[3]; ELISA absorbance, ECD1 subclones", "result": 2.7989}, {"measurement": "qualitative ELISA binding to Bio-Peptide-N", "setting": "[3]; recombinant antibodies", "result": "equal, strong and high binding affinity"}]}]}
